Data reported in article PMC7212649, “An arrestin-1 surface opposite of its interface with photoactivated rhodopsin engages with enolase-1” (The Journal of Biological Chemistry, 2020).
Each block holds one molecule with its values, some of them ahead of it.

B1: enolase-1 (bovine, unlabeled) (enzyme, UniProt Q9XSJ4 1-434, looked up)
chain: MSILKVHAREIFDSRGNPTVEVDLFTAKGLFRAAVPSGASTGIYEALELRDNDKTRYMGKGVSKAVEHINKTIAPALVSKKLNVVEQEKIDKLMIEMDGTENKSKFGANAILGVSLAVCKAGAVEKGVPLYRHIADLAGNAEVILPVPAFNVINGGSHAGNKLAMQEFMILPVGAENFREAMRIGAEVYHNLKNVIKEKYGKDATNVGDEGGFAPNILENKEALELLKNAIGKAGYSDKVVIGMDVAASEFYRSGKYDLDFKSPDDPSRYITPDELANLYKSFIRDYPVVSIEDPFDQDDWEAWQKFTASAGIQVVGDDLTVTNPKRIAKAVSEKSCNCLLLKVNQIGSVTESLQACKLAQSNGWGVMVSHRSGETEDTFIADLVVGLCTGQIKTVAPCRSERLAKYNQILRIEEELGSKAKFAGRSFRNPLAK
notes: enolase-1 (alpha-enolase), bovine; also called Eno1; source: prepared as arrestin-1 (Pichia pastoris, nickel-agarose)
B2: arrestin-1 E218C (C63A/C143A), mBBr-labeled (natural protein, bovine)
chain: KANKPAPNHVIFKKISRDKSVTIYLGKRDYIDHVERVEPVDGVVLVDPELVKGKRVYVSLTAAFRYGQEDIDVMGLSFRRDLYFSQVQVFPPVGASGATTRLQESLIKKLGANTYPFLLTFPDYLPCSVMLQPAPQDVGKSAGVDFEIKAFATHSTDVEEDKIPKKSSVRLLIRKVQHAPRDMGPQPRAEASWQFFMSDKPLRLAVSLSKEIYYHGCPIPVTVAVTNSTEKTVKKIKVLVEQVTNVVLYSSDYYIKTVAAEEAQEKVPPNSSLTKTLTLVPLLANNRERRGIALDGKIKHEDTNLASSTIIKEGIDKTVMGILVSYQIKVKLTVSGLLGELTSSEVATEVPFRLMHPQPEDPDTAKESFQDENFVFEEFARQNLKDAGEYKEEKTDQEAAMDE
modifications: monobromobimane (mBBr) on the introduced cysteine 218
notes: arrestin-1, bovine; also called E218C-mBBr; source: Pichia pastoris, purified (nickel-agarose)

What was measured:
[1] = molecular target: arrestin-1 E361K (bovine) (UniProt P08168); experiment: co-IP; 5 μM arrestin-1 (or mutant) with 5 μM enolase-1–Alexa 546 in LAP200N, 2 h at 4 °C; captured by C10C10 anti-arrestin-1 mAb on Protein G magnetic beads for 16 h, 10 washes, eluted at pH 2.5; fluorescence of captured enolase-1 read
[2] = molecular target: arrestin-1 R29E (bovine) (UniProt P08168); experiment: as above
[3] = molecular target: arrestin-1 D362K (bovine) (UniProt P08168); experiment: as above
[4] = molecular target: T1, arrestin-1 S210C (C63A/C143A), mBBr-labeled (bovine, UniProt P08168 2-404, C63A | C143A | S210C, monobromobimane (mBBr) on the introduced cysteine 210); experiment: fluorescence quench protection (KI quenching of mBBr); both in solution; 0.25 μM mBBr-labeled arrestin-1, 100 mM potassium iodide, with or without 5 μM enolase-1 (20-fold molar excess); emission at 470 nm; Pf = (F(A+E+K)−F(A+K))/(F(A)−F(A+K)); conditions: both partners purified
T1 construct: arrestin-1, bovine; source: Pichia pastoris, purified (nickel-agarose)

[5] = molecular target: T2, arrestin-1 D362C (C63A/C143A), mBBr-labeled (bovine, UniProt P08168 2-404, C63A | C143A | D362C, monobromobimane (mBBr) on the introduced cysteine 362); experiment: as above; conditions: both partners purified
T2 construct: arrestin-1, bovine; source: Pichia pastoris, purified (nickel-agarose)

[6] = molecular target: T3, arrestin-1 R189C (C63A/C143A), mBBr-labeled (bovine, UniProt P08168 2-404, C63A | C143A | R189C, monobromobimane (mBBr) on the introduced cysteine 189); experiment: as above; conditions: both partners purified
T3 construct: arrestin-1, bovine; source: Pichia pastoris, purified (nickel-agarose)

[7] = molecular target: T4, arrestin-1 V281C (C63A/C143A), mBBr-labeled (bovine, UniProt P08168 2-404, C63A | C143A | V281C, monobromobimane (mBBr) on the introduced cysteine 281); experiment: as above; conditions: both partners purified
T4 construct: arrestin-1, bovine; source: Pichia pastoris, purified (nickel-agarose)

[8] = molecular target: B2; experiment: as above; conditions: both partners purified
[9] = molecular target: T5, arrestin-1 H10C (C63A/C143A), mBBr-labeled (bovine, UniProt P08168 2-404, C63A | C143A | H10C, monobromobimane (mBBr) on the introduced cysteine 10); experiment: as above; conditions: both partners purified
T5 construct: arrestin-1, bovine; source: Pichia pastoris, purified (nickel-agarose)

[10] = molecular target: T6, arrestin-1 E50C (C63A/C143A), mBBr-labeled (bovine, UniProt P08168 2-404, C63A | C143A | E50C, monobromobimane (mBBr) on the introduced cysteine 50); experiment: as above; conditions: both partners purified
T6 construct: arrestin-1, bovine; source: Pichia pastoris, purified (nickel-agarose)

[11] = molecular target: T7, arrestin-1 D183C (C63A/C143A), mBBr-labeled (bovine, UniProt P08168 2-404, C63A | C143A | D183C, monobromobimane (mBBr) on the introduced cysteine 183); experiment: as above; conditions: both partners purified
T7 construct: arrestin-1, bovine; source: Pichia pastoris, purified (nickel-agarose)

[12] = molecular target: T8, arrestin-1 K53C (C63A/C143A), mBBr-labeled (bovine, UniProt P08168 2-404, C63A | C143A | K53C, monobromobimane (mBBr) on the introduced cysteine 53); experiment: as above; conditions: both partners purified
T8 construct: arrestin-1, bovine; source: Pichia pastoris, purified (nickel-agarose)

[13] = molecular target: T9, arrestin-1 K28C (C63A/C143A), mBBr-labeled (bovine, UniProt P08168 2-404, C63A | C143A | K28C, monobromobimane (mBBr) on the introduced cysteine 28); experiment: as above; conditions: both partners purified
T9 construct: arrestin-1, bovine; source: Pichia pastoris, purified (nickel-agarose)

[14] = molecular target: T10, arrestin-1 E302C (C63A/C143A), mBBr-labeled (bovine, UniProt P08168 2-404, C63A | C143A | E302C, monobromobimane (mBBr) on the introduced cysteine 302); experiment: as above; conditions: both partners purified
T10 construct: arrestin-1, bovine; source: Pichia pastoris, purified (nickel-agarose)

[15] = molecular target: T11, arrestin-1 K267C (C63A/C143A), mBBr-labeled (bovine, UniProt P08168 2-404, C63A | C143A | K267C, monobromobimane (mBBr) on the introduced cysteine 267); experiment: as above; conditions: both partners purified
T11 construct: arrestin-1, bovine; source: Pichia pastoris, purified (nickel-agarose)

[16] = molecular target: T12, arrestin-1 R37C (C63A/C143A), mBBr-labeled (bovine, UniProt P08168 2-404, C63A | C143A | R37C, monobromobimane (mBBr) on the introduced cysteine 37); experiment: as above; conditions: both partners purified
T12 construct: arrestin-1, bovine; source: Pichia pastoris, purified (nickel-agarose)

[17] = molecular target: T5, arrestin-1 H10C (C63A/C143A), …; experiment: fluorescence quench protection (KI quenching of mBBr); titration of the enolase-1 concentration against H10C-mBBr arrestin-1 to set the conditions; conditions: both partners purified
[18] = molecular target: B1; experiment: fluorescence quench protection (KI quenching of mBBr); E218C-mBBr arrestin-1 with enolase-1 in the presence of 5 μM pRho* (sonicated disc membranes, light for 1 min); conditions: both partners purified

reduction of the pulldown against WT arrestin-1 [1]: 25%
reduction of the pulldown against WT arrestin-1 [2]: 25%
reduction of the pulldown against WT arrestin-1 [3]: 25%
Molecule: enolase-1 labeled with Alexa Fluor 546 (from UniProt Q9XSJ4 1-434) (enzyme)

Molecule: B1
Pf (quench protection factor) [4]: 0.618
Pf (quench protection factor) [5]: 1.2
Pf (quench protection factor) [6]: 0.467
Pf (quench protection factor) [7]: 0.269
Pf (quench protection factor) [8]: 1.08
Pf (quench protection factor) [9]: 0.792
Pf (quench protection factor) [10]: 0.297
Pf (quench protection factor) [11]: 0.787
Pf (quench protection factor) [12]: 0.314
Pf (quench protection factor) [13]: 0.732
Pf (quench protection factor) [14]: 0.772
Pf (quench protection factor) [15]: 0.484
Pf (quench protection factor) [16]: 0.564
quench protection at a 20-fold molar excess of enolase-1 [17]: 90%

Molecule: B2
binding result [18]: binds
